# Test results as given in patent US20130059311A1, “METHOD FOR THE IDENTIFICATION OF MEMORY MODULATING COMPOUNDS BY ASSESSING KIBRA EXPRESSION” (SYGNIS BIOSCIENCE GMBH & CO KG, priority 2010, published 2013).
# Tests used:
# PKC zeta = target: T1, PKC zeta (Homo sapiens, UniProt Q05513); assay: PKC zeta kinase activity assay on pulldowns from COS cells; type: biochemical; details: pulldowns from COS cells over-expressing PKC zeta and KIBRA vs PKC zeta alone
# T1 construct: expressed in transfected cells; host or cells: COS cells
# T1 sequence (Q05513 1-592): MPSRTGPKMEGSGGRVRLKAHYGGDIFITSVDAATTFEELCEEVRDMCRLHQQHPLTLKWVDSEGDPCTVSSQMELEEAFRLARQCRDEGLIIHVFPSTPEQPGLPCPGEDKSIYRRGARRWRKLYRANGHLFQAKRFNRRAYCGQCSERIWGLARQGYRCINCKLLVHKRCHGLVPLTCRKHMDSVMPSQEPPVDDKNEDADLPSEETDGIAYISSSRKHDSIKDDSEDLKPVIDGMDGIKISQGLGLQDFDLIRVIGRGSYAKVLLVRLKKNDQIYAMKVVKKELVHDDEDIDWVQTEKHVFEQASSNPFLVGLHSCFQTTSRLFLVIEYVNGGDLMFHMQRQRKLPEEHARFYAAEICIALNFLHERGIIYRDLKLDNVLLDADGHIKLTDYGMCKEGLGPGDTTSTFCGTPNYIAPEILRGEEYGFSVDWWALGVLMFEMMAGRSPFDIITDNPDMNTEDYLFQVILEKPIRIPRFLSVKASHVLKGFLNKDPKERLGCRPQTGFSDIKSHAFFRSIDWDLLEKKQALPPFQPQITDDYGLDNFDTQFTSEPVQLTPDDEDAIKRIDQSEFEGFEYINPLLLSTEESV
# Method: To investigate the impact of KIBRA on PKC zeta activity itself, PKC zeta activity were determined in an enzyme assay. The kinase activity in the assay is detected by the phosphorylation of a substrate peptide by an antibody reaction according to manufactures instruction (HTScan PKC zeta kinase assay kit, Cell Signaling Technology Inc., Danvers, Mass., USA). The antibody is detected by a lanthanide-labeled secondary antibody, which can be measured in a fluorescent plate reader.
# In order to analyze PKC zeta activity with and without KIBRA, COS cells over-expressing PKC zeta alone or in combination with KIBRA were lysed and PKC zeta was pulled down with respective PKC zeta binding beads.
# Previous studies have shown that PKC zeta co-immunoprecipitates with KIBRA, and immunoreactive bands for KIBRA in the western blot analysis confirmed that PKC zeta pulldowns include KIBRA protein from cells also over-expressing KIBRA. When pulldowns from cells over-expressing PKC zeta were compared to cells over-expressing both PKC zeta and KIBRA for the phosphorylation of substrate peptide in the activity assay, a strong increase of PKC zeta activity by 50% was observed. […] Analysis of the kinase activity of the truncated form confirmed that the phosphorylation of the peptide was only mediated by PKC zeta and no other kinase attached to the beads.
# [1] = system: KIBRA (KIdney BRAin protein)
increase of PKC zeta activity (PKC zeta),Substance,"PKC zeta kinase activity (phosphorylation of substrate peptide, HTScan PKC zeta kinase assay kit) of PKC zeta pulldowns [1]"
50%,KIBRA: KIBRA protein over-expressed in COS cells together with PKC zeta,–
–,protein kinase C zeta,a strong increase of PKC zeta activity by 50% was observed
